According to US11351268B2, “FGF21 C-terminal peptide optimization” (INDIANA UNIVERSITY RESEARCH AND TECHNOLOGY CORPORATION, priority 2016, dated 2022):
Positions count from the first letter of the chain named. In names and notes the source's numbering stands. Several values for one entry are separate records, joined by “and”; a condition that tells them apart may be missing. Identical values can stand only once. Like-named read-outs stand apart in the source and are kept apart here. Values belong to the molecule of their own block, whether it stands above or below them.

Assays:
[1] = tested on: FGF21 receptor; assay: Erk1/2 phosphorylation assay: agonist activity in 293T HEK hKLB cells; assay type: cell-based, human; conditions: for IC50: full length FGF21 analogs, tested in triplicate
Experimental: Cells were cultured in 10% Fetal Bovine Serum containing DMEM High glucose GLUTAMAX® at 37 C, 95% humidity, 5% CO2. For generating the cell line with stable expression, human KLB gene was synthesized by Genscript and subcloned into pcDNA3.1(+) with ZEOCIN® resistance vector (INVITROGEN®) by NheI and NotI restriction enzyme sites. HEK 293T cells were obtained from ATCC and were transiently transfected at 80% confluency using Lipofectamine 3000 (Invitrogen). Selection for KLB-expressing cells was initiated 48 hours post-transfection in the growth media containing 100 μg/ml of ZEOCIN® (Gibco) and continued for 4 weeks with fresh media added every third day. Human KLB expression in pooled cells was confirmed by Western blot and a functional FGF21 MAPK phosphorylation assay.
293 HEK cells expressing hKLB were plated to 90% confluency in 96 well plates coated with poly-D-Lysine. Cells were serum starved for three hours in 0.1% BSA containing media prior to stimulation with protein and/or an antagonist peptide for ten minutes at 37° C. The cell lysate was used for the detection of phospho-Erk1/2 levels by AlphaSureFire kit using the prescribed protocol. The degree of biochemical activation was recorded and analyzed using Origin software by logistic curve fitting. Tests at each concentration were done in triplicates, and the standard deviation is as shown in the graphs. The calculation of maximal activities was done keeping the FGF21 157-181 or FGF19 169-194 peptide activity as standard. The difference between the Erk1/2 phosphorylation signal for the highest (10 μM) and the lowest (0 μM) tested dose for native peptide was considered as 100% and accordingly all the other values were assigned.

[2] = target: T1, mouse KLB (Mus musculus, UniProt P16092+Q99N32); assay: agonism in cells overexpressing mouse KLB; assay type: cell-based; conditions: FIG. 11B, read-out: potency (agonism)
T1 construct: expressed in transfected cells

[3] = in vivo administration of FGF analogs to mice on diabetogenic diet; set-up: species or system C57Bl/6 mice; conditions: 0.3 or 1.0 mg/kg daily subcutaneous, relative to native FGF21; for change in body weight: 6 days
Experimental: C57Bl/6 mice were obtained from Jackson Laboratories and fed a diabetogenic diet from Research Diets: a high-sucrose diet with 58% kcal from fat. Mice were group-housed on a 12:12-h light-dark cycle at 22° C. with free access to food and water. All studies were approved by and performed according to the guidelines of the Institutional Animal Care and Use Committee of the University of Cincinnati. All mice were treated by daily subcutaneous injections delivered in physiologically buffered saline at a dose of 0.3 or 1 mg/kg. Animals were weighed and food consumption was measured each day.
Unless indicated otherwise, all statistical analyses were performed using GraphPad Prism. The analysis of the results obtained in the in vivo experiments was performed using one-way ANOVAs followed by Tukey post hoc tests. P values lower than 0.05 were considered significant. The results are presented as means±s.e.m. of 7-8 replicates per group. Receptor activation data is ±s.d.
The effect of FGF analog V2-0278-1A on mice was investigated by administering either vehicle, FGF21 (at 0.3 mg/kg or 1.0 mg/kg) or V2-0278-1A (at 0.3 mg/kg or 1.0 mg/kg) and monitoring weight over the course of 6 days of treatment.

[4] = FIG. 11A, cells overexpressing human KLB, read-out: potency (agonism)
[5] = FIGS. 9A/9B, full length proteins, Erk1/2 phosphorylation, read-out: EC-50
[6] = FIG. 12, cells overexpressing human KLB, read-out: potency

FGF21 receptor, sequence (Q86Z14 whole entry): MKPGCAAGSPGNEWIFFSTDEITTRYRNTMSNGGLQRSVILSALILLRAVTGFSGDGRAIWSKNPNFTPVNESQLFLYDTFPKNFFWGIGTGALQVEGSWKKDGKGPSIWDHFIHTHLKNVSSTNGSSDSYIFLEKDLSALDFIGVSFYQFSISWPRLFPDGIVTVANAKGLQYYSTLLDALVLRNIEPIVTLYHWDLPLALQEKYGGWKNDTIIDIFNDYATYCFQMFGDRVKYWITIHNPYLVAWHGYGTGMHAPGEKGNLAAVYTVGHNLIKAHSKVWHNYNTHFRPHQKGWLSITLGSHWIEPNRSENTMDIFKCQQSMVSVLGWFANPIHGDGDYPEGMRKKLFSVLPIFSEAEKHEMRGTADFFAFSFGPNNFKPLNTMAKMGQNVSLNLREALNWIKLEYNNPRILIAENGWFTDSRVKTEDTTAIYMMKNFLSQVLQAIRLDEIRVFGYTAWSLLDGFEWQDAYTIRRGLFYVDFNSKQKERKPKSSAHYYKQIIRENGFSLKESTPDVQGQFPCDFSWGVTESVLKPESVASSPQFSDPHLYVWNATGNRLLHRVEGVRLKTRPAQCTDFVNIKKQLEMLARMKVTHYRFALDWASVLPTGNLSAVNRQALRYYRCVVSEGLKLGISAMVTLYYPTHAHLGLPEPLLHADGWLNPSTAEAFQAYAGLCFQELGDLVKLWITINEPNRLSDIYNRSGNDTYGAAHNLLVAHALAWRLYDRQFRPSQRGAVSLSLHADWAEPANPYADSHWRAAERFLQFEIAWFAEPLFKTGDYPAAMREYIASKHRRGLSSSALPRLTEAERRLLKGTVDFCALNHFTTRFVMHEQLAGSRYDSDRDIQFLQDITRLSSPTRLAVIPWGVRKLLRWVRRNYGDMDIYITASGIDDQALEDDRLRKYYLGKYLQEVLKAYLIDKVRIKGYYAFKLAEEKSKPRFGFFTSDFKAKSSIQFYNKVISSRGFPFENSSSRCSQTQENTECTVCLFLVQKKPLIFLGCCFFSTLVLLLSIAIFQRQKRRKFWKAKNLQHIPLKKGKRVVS
T1 sequence (Q99N32 whole entry): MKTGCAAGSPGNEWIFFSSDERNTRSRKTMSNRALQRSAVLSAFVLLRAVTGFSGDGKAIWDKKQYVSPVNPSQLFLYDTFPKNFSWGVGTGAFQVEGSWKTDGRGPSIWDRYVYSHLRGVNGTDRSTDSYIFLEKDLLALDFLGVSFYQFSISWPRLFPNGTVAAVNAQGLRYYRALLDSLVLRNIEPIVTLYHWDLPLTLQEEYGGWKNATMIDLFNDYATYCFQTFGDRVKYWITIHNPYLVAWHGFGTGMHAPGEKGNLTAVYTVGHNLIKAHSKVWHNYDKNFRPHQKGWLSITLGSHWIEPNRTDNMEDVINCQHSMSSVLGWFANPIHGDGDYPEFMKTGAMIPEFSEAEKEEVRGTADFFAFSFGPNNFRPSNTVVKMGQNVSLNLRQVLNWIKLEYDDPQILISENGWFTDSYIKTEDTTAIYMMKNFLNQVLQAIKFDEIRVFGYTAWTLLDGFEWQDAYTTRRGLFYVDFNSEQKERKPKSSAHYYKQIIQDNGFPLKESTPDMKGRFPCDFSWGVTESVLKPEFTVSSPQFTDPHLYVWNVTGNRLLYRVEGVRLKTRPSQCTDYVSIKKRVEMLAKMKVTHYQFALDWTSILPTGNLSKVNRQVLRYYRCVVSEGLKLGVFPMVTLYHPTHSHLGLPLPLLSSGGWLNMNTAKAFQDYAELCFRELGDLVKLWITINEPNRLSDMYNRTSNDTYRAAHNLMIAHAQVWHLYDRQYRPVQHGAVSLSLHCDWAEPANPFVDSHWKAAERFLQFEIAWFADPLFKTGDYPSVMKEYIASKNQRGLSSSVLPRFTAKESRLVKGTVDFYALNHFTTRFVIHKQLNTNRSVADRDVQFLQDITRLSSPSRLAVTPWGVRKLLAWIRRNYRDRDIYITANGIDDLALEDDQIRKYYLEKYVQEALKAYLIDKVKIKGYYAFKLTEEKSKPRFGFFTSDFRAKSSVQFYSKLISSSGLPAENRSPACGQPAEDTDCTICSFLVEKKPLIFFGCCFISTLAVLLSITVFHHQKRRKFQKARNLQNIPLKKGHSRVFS
T1 sequence (P16092 22-822): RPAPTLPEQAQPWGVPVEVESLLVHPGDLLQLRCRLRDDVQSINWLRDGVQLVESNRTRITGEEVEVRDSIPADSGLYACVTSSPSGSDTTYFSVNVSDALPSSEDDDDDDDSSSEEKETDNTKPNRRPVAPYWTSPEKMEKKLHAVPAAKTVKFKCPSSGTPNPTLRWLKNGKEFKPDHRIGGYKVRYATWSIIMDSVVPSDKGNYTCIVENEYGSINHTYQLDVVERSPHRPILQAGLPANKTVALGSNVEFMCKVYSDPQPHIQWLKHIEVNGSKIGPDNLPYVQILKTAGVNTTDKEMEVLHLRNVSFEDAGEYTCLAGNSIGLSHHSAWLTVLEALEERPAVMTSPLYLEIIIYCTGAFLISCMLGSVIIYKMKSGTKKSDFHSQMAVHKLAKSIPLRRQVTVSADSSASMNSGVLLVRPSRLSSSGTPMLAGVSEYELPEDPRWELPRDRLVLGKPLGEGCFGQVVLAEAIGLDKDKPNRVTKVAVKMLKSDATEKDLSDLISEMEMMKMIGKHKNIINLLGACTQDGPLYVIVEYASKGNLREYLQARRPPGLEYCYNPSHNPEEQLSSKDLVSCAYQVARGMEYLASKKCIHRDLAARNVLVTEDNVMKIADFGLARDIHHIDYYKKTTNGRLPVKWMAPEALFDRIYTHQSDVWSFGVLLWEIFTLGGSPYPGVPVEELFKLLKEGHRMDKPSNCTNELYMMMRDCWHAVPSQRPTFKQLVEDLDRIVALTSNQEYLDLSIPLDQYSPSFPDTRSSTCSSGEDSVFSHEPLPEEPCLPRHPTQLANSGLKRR

Molecule: FGF19: native full length FGF19 protein [reference compound]
EC50 [1, 4]: 65.8 ± 58.2 nM | % maximal activity ([1]; FIGS. 9A/9B, full length proteins, Erk1/2 phosphorylation): 27% | EC50 [1, 5]: 148 nM | EC50 [2]: 25.7 ± 21.3 nM

B2: FGF21 486K: analog of FGF21 486A where the C-terminal alanine is replaced with a lysine (protein)
chain: HPIPDSSPLLQFGGQVRQRYLYTDDAQQTECHLEIREDGTVGCAADQSPESLLQLKALKPGVIQILGVKTSRFLCQRPDGALYGSLHFDPEACSFREDLKEDGYNVYQSEAHGLPLHLPGDKSPHRKPAPRGPARFLPLPGLPPALPEPPGILAPQPPDVGSSDPFGLVGPSQGRSPSFEK
IC50 [1]: 3.16 ± 0.56 nM

B3: FGF21 470A: modified FGF21 N-terminus fused to peptide 0470 (protein, listed as Homo sapiens)
chain: B2 chain with S163M, P171R, K181A
IC50 [1]: 0.61 ± 0.06 nM

B4: FGF21 431K: analog of FGF21 431A where the C-terminal alanine is replaced with a lysine (protein)
chain: B2 chain with S163M
IC50 [1]: 4.3 ± 0.07 nM

B5: FGF21 480K: analog of FGF21 480A where the C-terminal alanine is replaced with a lysine (protein)
chain: B2 chain with G161F, S163M
IC50 [1]: 1.62 ± 0.54 nM

B10: 0278-1A: fusion of the N-terminus of FGF21 and C-terminal peptide FGF19 A26 (protein, listed as Homo sapiens)
chain: HPIPDSSPLLQFGGQVRQRYLYTDDAQQTEAHLEIREDGTVGGAADQSPESLLQLKALKPGVIQILGVKTSRFLCQRPDGALYGSLHFDPEACSFRELLLEDGYNVYQSEAHGLPLHLPGNKSPHRDPAPRGPARFLPLPGLPPALPEPPGILAPQLETDSMDPFGLVTGLEAVRSPSFEA
EC50 [1, 4]: 1.82 ± 0.37 nM | EC50 [1, 6]: 1.13 ± 0.28 nM | EC50 [2]: 2.15 ± 0.54 nM

B11: V2-0278-1A: 0278-1A with A31C, G43C, L98D, L100K, N121D, D127K (protein, listed as Homo sapiens)
chain: B10 chain with A31C, G43C, L98D, L100K, N121D, D127K
EC50 [1, 6]: 0.35 ± 0.12 nM | fold higher potency versus 0278-1A ([1]; cells overexpressing human KLB): 2-3 × | change in body weight [3]: enhanced weight loss | change in body weight ([3]; listed as 0361): superior change in body weight | food intake [3]: reduced food intake | food intake ([3]; listed as 0361): greater reduction in total food intake

Second part, the molecule after the results:

EC50 [1, 4]: 8.42 ± 4.1 nM | EC50 [1, 5]: 4.5 nM and 3.3 nM | EC50 [2]: 3.96 ± 1.51 nM
B1: FGF21: native full length mature FGF21 protein (protein, listed as Homo sapiens)
chain: HPIPDSSPLLQFGGQVRQRYLYTDDAQQTEAHLEIREDGTVGGAADQSPESLLQLKALKPGVIQILGVKTSRFLCQRPDGALYGSLHFDPEACSFRELLLEDGYNVYQSEAHGLPLHLPGNKSPHRDPAPRGPARFLPLPGLPPALPEPPGILAPQPPDVGSSDPLSMVGPSQGRSPSYAS

IC50 [1]: 0.21 ± 0.03 nM
B6: FGF21 486A: modified FGF21 N-terminus fused to peptide 0486 (protein, listed as Homo sapiens)
chain: B2 chain with K181A

IC50 [1]: 6.14 ± 1.93 nM
B7: FGF21 470K: analog of FGF21 470A where the C-terminal alanine is replaced with a lysine (protein)
chain: B2 chain with S163M, P171R

IC50 [1]: 0.51 ± 0.21 nM
B8: FGF21 431A: FGF21 N-terminus (A31C, G43C, L98D, L100K, N121D, D127K) fused to peptide 0431 (protein, listed as Homo sapiens)
chain: B2 chain with S163M, K181A

IC50 [1]: 0.43 ± 0.04 nM
B9: FGF21 480A: modified FGF21 N-terminus fused to peptide 0480 (protein, listed as Homo sapiens)
chain: B2 chain with G161F, S163M, K181A
